Test results reported in patent US20100291106A1 (Novartis, published 2010).

B1: MOR9556 Fab format (Fab, V domains shown)
VH: EVQLVESGGGLVQPGGSLRLSCAASGFTFSSYWMTWVRQAPGKGLEWVSSIKIKPDGYAASVKGRFTISRDNSKNTLYLQMNSLRAEDTAVYYCARLFYQYFARMDYWGQGTLVTVSS
VL: DIQMTQSPSSLSASVGDRVTITCRASQDISNYLNWYQQKPGKAPKLLIYAASNLQSGVPSRFSGSGSGTDFTLTISSLQPEDFATYYCQQYDSYSPTFGQGTKVEIK
B2: MOR9675 Fab format (Fab, V domains shown)
VH: EVQLVQSGAEVKKPGASVKVSCKASGYTFTGYYINWVRQAPGQGLEWMGIISPNQGTTGYAQKFQGRVTMTRDTSISTAYMELSSLRSEDTAVYYCARGNYDHLDYWGQGTLVTVSS
VL: DIQMTQSPSSLSASVGDRVTITCRASQGISNYLNWYQQKPGKAPKLLIYDASTLQSGVPSRFSGSGSGTDFTLTISSLQPEDFATYYCQQDWHTLPVTFGQGTKVEIK
B3: MOR09612 IgG (antibody, V domains shown)
VH: EVQLVESGGGLVQPGGSLRLSCAASGFTFSSYWMTWVRQAPGKGLEWVSSIKIKPDGYAASVKGRFTISRDNSKNTLYLQMNSLRAEDTAVYYCARLFYQYFARMDYWGQGTLVTVSS
VL: DIQMTQSPSSLSASVGDRVTITCRASQDISNYLNWYQQKPGKAPKLLIYAASNLQSGVPSRFSGSGSGTDFTLTISSLQPEDFATYYCQQWDSFSPTFGQGTKVEIKR
notes: Germlined human IgG1 with leucines 234 and 235 changed to alanines, kappa; also called antibody 9612
B4: MOR09611 IgG (antibody, V domains shown)
VH: EVQLVESGGGLVQPGGSLRLSCAASGFTFSSYWMTWVRQAPGKGLEWVSSIKIKPDGYAASVKGRFTISRDNSKNTLYLQMNSLRAEDTAVYYCARLFYQYFARMDYWGQGTLVTVSS
VL: DIQMTQSPSSLSASVGDRVTITCRASQDISNYLNWYQQKPGKAPKLLIYAASNLQSGVPSRFSGSGSGTDFTLTISSLQPEDFATYYCQQHDTFRPTFGQGTKVEIKR
notes: Germlined human IgG1 with leucines 234 and 235 changed to alanines, kappa; also called antibody 9611

What was measured:
[1] = biological target: T1, cynomolgus complement C3b protein (cynomolgus monkey (Macaca fascicularis)); assay: solution equilibrium titration (SET), ECL detection, Fab
T1 construct: also called cyno C3b; cynoC3b

[2] = biological target: T2, human complement C3b protein (human, UniProt P01024 23-667; P01024 749-1663); assay: as above
T2 construct: Purified plasma C3b (Complement Technology, Quidel); Depending on the assay it was captured by an anti-C3d antibody, coated, biotinylated or coupled to beads; also called human C3b; huC3b
T2 sequence (P01024 23-667 P314L, chain 1 of 2): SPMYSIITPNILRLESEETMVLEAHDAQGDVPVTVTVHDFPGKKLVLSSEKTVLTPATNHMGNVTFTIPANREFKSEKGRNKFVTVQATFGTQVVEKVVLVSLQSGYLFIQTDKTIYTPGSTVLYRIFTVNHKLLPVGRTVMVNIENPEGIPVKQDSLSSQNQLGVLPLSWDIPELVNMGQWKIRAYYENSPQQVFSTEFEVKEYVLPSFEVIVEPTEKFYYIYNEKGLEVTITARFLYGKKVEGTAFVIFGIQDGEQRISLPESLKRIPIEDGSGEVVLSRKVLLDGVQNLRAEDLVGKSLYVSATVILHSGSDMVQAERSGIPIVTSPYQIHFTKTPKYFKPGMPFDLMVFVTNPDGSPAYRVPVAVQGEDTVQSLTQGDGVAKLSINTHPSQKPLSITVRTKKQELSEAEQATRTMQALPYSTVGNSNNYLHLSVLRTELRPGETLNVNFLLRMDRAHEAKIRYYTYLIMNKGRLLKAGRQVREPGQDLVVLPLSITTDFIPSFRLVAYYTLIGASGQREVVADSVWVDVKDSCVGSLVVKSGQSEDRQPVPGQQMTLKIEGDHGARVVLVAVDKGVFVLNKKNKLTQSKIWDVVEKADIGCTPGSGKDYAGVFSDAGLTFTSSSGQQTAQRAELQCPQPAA
T2 sequence (P01024 749-1663, chain 2 of 2): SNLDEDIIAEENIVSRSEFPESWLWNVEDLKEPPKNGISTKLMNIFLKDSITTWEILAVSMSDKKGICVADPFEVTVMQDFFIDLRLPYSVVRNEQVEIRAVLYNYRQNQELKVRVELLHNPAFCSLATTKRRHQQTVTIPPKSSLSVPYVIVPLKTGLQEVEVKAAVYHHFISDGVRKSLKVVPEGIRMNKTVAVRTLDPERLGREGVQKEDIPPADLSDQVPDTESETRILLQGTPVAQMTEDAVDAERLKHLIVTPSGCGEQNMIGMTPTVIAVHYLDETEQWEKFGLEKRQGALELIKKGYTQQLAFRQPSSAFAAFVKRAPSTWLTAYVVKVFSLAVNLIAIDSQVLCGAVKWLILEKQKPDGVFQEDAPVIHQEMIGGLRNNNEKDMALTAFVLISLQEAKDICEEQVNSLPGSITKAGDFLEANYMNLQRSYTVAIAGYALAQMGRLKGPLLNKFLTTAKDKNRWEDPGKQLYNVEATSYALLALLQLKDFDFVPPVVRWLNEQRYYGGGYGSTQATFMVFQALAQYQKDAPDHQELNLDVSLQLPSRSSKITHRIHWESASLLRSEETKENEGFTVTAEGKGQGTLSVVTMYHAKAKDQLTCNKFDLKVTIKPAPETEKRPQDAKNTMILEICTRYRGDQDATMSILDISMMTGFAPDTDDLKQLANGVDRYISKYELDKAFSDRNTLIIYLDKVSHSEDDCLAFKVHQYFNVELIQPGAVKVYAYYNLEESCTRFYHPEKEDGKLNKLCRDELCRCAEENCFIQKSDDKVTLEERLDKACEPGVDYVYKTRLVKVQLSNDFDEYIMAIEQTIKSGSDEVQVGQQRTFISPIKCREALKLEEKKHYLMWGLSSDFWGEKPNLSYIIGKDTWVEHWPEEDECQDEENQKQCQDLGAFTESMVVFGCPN

[3] = biological target: T2, human complement C3b protein; assay: bead proximity assay, C3b-acceptor beads; competitor biotinylated fH
Protocol: (§1) In brief, purified C3b and fP were conjugated to unconjugated acceptor or donor beads (PerkinElmer) using AminoLink Reductant (Pierce) during a 48 h incubation at room temperature. Beads were quenched using Carboxymethoxylamine Hemihydrochloride (Aldrich), and purified by centrifugation at 13000 rpm and three washes with 0.1M TBST. Purified fB(D24G/N260D) and fH were biotinylated during a 30 min incubation with 20-fold molar excess of NHS-Chromogenic-biotin (Pierce) at room temperature, and purified using Zeba 0.5 ml desalting columns (Pierce).
(§2) For C3b-C3b and C3b-fP proximity, Fabs or IgGs respectively were pre-incubated with C3b-Acceptor beads (20 μg/ml) for 60 min at room temperature. C3b-Donor beads or fP-Donor beads (20 μg/ml) were then added, and the plate was incubated overnight at room temperature before reading. For C3b-fB and C3b-fH proximity, antibodies were pre-incubated with C3b-Acceptor beads (20 μg/ml) for 60 minutes at room temperature. Biotinylated fB(D24G/N260D) or fH were then added, and incubated for 60 minutes at room temperature. SA-Donor beads were then added (20 μg/ml) and the plate was incubated overnight at room temperature before reading. Plates were read on the BMG Pherastar (ex=680, em=520-620).

human C3d [4] = biological target: T3, human C3d (human, UniProt P01024 1002-1303); assay: cross reactivity, ELISA on C3d, anti-His detection
T3 construct: domain: C3d
T3 sequence (P01024 1002-1303 limits assumed): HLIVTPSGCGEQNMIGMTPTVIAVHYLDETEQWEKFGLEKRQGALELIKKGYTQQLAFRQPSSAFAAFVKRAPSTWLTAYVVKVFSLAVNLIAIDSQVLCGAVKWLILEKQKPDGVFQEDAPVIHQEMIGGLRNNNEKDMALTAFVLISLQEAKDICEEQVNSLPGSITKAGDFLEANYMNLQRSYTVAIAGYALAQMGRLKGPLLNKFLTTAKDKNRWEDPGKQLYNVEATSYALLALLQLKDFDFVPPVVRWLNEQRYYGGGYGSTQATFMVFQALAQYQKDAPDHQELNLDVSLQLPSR

[5] = biological target: T1, cynomolgus complement C3b protein; assay: cell-based or functional assay
[6] = biological target: T2, human complement C3b protein; assay: cell-based or functional assay
human C5 = biological target: T4, human C5 (human, UniProt P01031 19-673; P01031 678-1676); assay: Direct ELISA at 2 ug/ml C5, 200 nM Fab
T4 construct: Captured by an anti-C5 antibody in the ELISA
T4 sequence (P01031 19-673 limits assumed, chain 1 of 2): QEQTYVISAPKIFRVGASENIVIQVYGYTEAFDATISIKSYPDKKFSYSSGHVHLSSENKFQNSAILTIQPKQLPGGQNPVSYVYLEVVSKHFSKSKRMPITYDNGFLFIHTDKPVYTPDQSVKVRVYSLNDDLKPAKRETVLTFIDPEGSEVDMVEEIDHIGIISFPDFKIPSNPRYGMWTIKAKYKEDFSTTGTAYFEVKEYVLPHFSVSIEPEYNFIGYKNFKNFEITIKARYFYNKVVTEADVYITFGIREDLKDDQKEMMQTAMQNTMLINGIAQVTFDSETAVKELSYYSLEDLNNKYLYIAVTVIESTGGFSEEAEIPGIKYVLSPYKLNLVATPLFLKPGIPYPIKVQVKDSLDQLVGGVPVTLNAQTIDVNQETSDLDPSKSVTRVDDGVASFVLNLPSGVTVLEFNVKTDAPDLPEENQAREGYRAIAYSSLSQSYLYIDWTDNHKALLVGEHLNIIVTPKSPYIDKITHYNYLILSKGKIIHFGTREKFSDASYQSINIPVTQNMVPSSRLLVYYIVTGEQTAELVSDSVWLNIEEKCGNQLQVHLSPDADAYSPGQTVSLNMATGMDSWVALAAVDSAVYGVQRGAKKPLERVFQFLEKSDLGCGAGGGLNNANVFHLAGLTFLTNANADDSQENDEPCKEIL
T4 sequence (P01031 678-1676 limits assumed, chain 2 of 2): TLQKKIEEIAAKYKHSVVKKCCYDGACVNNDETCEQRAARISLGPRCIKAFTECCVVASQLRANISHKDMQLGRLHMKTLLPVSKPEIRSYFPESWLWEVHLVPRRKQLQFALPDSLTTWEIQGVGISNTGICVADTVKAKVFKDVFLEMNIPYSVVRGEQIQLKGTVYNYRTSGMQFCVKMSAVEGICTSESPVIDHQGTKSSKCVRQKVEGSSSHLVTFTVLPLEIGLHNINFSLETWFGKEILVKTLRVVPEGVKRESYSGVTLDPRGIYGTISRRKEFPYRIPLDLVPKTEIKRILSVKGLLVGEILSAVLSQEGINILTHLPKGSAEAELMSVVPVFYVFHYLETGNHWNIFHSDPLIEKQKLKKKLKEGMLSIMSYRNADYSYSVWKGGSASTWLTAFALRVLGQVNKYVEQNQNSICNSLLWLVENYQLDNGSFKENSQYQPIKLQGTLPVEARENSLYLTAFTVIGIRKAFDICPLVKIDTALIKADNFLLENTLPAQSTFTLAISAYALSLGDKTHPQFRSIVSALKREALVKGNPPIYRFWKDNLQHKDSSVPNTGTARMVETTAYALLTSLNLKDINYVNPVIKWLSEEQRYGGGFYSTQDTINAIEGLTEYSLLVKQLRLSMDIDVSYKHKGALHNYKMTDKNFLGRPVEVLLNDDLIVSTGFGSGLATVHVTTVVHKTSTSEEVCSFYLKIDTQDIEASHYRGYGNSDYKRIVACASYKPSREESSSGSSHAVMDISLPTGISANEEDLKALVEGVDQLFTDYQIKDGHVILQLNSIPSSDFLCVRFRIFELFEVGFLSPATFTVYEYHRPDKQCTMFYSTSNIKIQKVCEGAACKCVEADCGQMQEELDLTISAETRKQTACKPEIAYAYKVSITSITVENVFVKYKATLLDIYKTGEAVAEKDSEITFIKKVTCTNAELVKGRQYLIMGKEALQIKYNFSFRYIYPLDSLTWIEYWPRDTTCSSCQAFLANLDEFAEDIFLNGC

[7] = biological target: T1, cynomolgus complement C3b protein; assay: SPR (Biacore), C3b captured by anti-C3d antibody, Fab as analyte
[8] = biological target: T2, human complement C3b protein; assay: as above
[9] = biological target: T2, human complement C3b protein; assay: bead proximity assay, C3b-acceptor beads; competitor biotinylated fB(D24G/N260D)
Protocol: as §1, §2

[10] = biological target: T2, human complement C3b protein; assay: AlphaScreen bead proximity, C3b-Acceptor beads pre-incubated with antibody, then C3b-Donor beads; inhibition of C3b-C3b dimer formation; unit from the axis [Antibody] nM [D]
Protocol: as §1, §2

[11] = biological target: T2, human complement C3b protein; assay: cell-based or functional assay; remark: listed apart in the source
[12] = biological target: T1, cynomolgus complement C3b protein; assay: SPR (Biacore T100), C3b captured by anti-C3d antibody, IgG as analyte, 1:1 model
[13] = biological target: T2, human complement C3b protein; assay: as above
[14] = biological target: T2, human complement C3b protein; assay: AlphaScreen bead proximity, C3b-Acceptor beads pre-incubated with antibody, then biotinylated fH and SA-Donor beads; blocked ligand: fH [C]
Protocol: as §1, §2

human C3d [15] = biological target: T3, human C3d; assay: C3d binding ELISA, IgG titrated from about 0.006 to 100 nM
[16] = biological target: T2, human complement C3b protein; assay: ELISA, C3b or C3 captured by anti-C3d antibody
Protocol: The C3b antibodies were examined to determine whether they were selective for binding to C3b relative to the C3b precursor C3. Briefly, binding selectivity for C3b was determined by performing the following steps. Coat Maxisorp plate Nunc (442404) with anti-C3d rabbit monoclonal (abcam 17453) at 2 μg/ml in Carbonate Buffer at 100 μl/well. Seal plates and incubate at 4° C. overnight. Aspirate plates and wash 3 times with PBS/0.5% Tween 20. Block plates with Diluent (PBS, 4% BSA Fraction V (Fisher ICN16006980), 0.1% Tween 20 (Sigma P1379), 0.1% Triton X-100 (Sigma P234729)) and incubate for 2 h at room temperature or overnight at 4° C. Then wash plates once with PBS/0.5% Tween 20. Dilute purified C3b (complement technologies A114 lot 21) and C3 (complement technologies A113c) at 1 μg/ml in diluent and plate 100 μl per well. Incubate for 1 h at room temperature. Then wash 3 times with PBS/0.5% Tween 20.
Dilute Fabs at 100 nM and subsequent dilutions (or higher concentration) in diluent and plate 100 μl per well. Incubate at room temperature for 1 h. Wash plates 3 times with PBS/0.5% Tween 20. Add 100 μl/well of anti-Histidine-HRP monoclonal detection antibody at 1:400 in diluent and incubate at room temperature for 1 h. Then wash 4 times with PBS/0.5% Tween 20. Add 100 μl of TMB substrate (Pierce 34028) and incubate at room temperature for up to 5 min. Add 50 μl of Stop solution (2N Sulfuric Acid) to each well and read plate at 450 nm and correct for plastic reading at 570 nm.

[17] = biological target: T2, human complement C3b protein; assay: AlphaScreen bead proximity, C3b-Acceptor beads pre-incubated with antibody, then biotinylated fB(D24G/N260D) and SA-Donor beads; blocked ligand: fB [A]
Protocol: as §1, §2

Row | Binder | Kd [1] | Kd [2] | IC50 [3] | binding result (human C3d [4]) | C3b Dep (nM), cyno serum, IC50 [5] | HA (nM), 10% cyno serum, IC50 [5] | MAC Dep (nM), cyno serum, IC50 [5] | C3a (nM), human, inhibition of C3a generation [6] | C3b Dep (nM), human serum, IC50 [6] | C5a (nM), human, inhibition of C5a generation [6] | HA (nM), 10% human serum, IC50 [6] | MAC Dep (nM), human serum, IC50 [6] | binding result (human C5) | Kd [7] | Kd [8] | IC50 [9] | EC50 [10] | MAC deposition on zymosan, IC50 [11] | hemolysis of rabbit red blood cells, 10% human or cynomolgus serum, IC50 [11] | inhibition of C3a and C5a generation during hemolysis, IC50 [11] | also measured
1 | B1 | 0.018 nM | 0.0015 nM | 0.2 nM | no binding | 43 nM | 99 nM | 18 nM | 90 nM | 24 nM | 17 nM | 62 nM | 4 nM | no binding (tested: 200 nM) | 0.042 nM | 0.0066 nM | 0.15 nM |  |  |  |  | 
2 | B2 | 0.241 nM | 0.052 nM | 0.2 nM | no binding | 43 nM | 92 nM | 14 nM | 97 nM | 11 nM | 36 nM | 60 nM | 3 nM | no binding (tested: 200 nM) | 0.562 nM | 0.121 nM | 1 nM |  |  |  |  | 
3 | B3 |  |  |  |  |  |  |  |  |  |  |  |  |  |  |  |  | 340 nM | ≤ 5 nM | ≤ 50 nM | ≤ 50 nM | Kd [12]: 0.0253 nM; koff [12]: 8.67e-05 s⁻¹; kon [12]: 3.43e+06 M⁻¹ s⁻¹; Kd [13]: 0.00179 nM; koff [13]: 9.04e-06 s⁻¹; kon [13]: 5.05e+06 M⁻¹ s⁻¹; IC50 (read off the curve) [14]: ~0.04 nM; binding result (human C3d [15]): no binding (tested: 100 nM); fold binding selectivity for C3b over C3 [16]: > 1000 fold; IC50 (read off the curve) [17]: ~0.05 nM
4 | B4 |  |  |  |  |  |  |  |  |  |  |  |  |  |  |  |  | 605 nM | ≤ 5 nM | ≤ 50 nM | ≤ 50 nM | Kd [12]: 0.0183 nM; koff [12]: 0.000128 s⁻¹; kon [12]: 6.97e+06 M⁻¹ s⁻¹; Kd [13]: 0.000435 nM; koff [13]: 3.1e-06 s⁻¹; kon [13]: 7.13e+06 M⁻¹ s⁻¹; IC50 (read off the curve) [14]: ~0.04 nM; binding result (human C3d [15]): no binding (tested: 100 nM); fold binding selectivity for C3b over C3 [16]: > 1000 fold; IC50 (read off the curve) [17]: ~0.05 nM
